Tests used:
Assay in all cases: biochemical
266 human kinases [1] = molecular target: T1, 266 human kinases (Homo sapiens, UniProt P29322); assay type: biochemical; settings: EphA8(h); 100 μM
T1 sequence (P29322 28-1005): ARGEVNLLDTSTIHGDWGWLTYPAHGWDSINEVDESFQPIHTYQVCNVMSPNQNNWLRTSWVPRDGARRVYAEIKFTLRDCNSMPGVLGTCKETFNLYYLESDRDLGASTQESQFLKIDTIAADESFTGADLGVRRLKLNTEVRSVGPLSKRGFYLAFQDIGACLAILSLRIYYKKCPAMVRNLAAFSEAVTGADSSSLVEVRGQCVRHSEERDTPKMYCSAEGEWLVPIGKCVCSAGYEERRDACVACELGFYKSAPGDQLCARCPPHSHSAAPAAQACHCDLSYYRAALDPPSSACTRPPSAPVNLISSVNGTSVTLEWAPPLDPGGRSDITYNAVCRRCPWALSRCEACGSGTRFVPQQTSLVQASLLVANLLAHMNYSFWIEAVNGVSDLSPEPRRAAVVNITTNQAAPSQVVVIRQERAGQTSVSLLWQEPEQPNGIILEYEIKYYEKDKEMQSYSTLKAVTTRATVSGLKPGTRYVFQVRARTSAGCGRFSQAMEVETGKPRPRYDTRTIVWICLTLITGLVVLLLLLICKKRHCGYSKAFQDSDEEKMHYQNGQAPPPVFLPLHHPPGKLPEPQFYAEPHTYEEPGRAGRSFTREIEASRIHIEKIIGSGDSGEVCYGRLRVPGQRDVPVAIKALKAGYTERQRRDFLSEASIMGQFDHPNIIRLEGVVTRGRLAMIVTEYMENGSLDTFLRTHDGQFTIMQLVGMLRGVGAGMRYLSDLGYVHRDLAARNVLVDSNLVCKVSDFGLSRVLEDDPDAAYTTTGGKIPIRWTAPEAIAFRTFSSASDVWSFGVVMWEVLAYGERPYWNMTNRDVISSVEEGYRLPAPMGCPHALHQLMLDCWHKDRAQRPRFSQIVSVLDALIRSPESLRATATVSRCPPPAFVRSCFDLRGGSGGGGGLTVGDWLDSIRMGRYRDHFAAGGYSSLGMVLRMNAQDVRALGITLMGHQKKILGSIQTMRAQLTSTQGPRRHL
Method in brief: (§1)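 Read-out by scintillation counting of radiolabelled, positively charged substrate bound to negatively charged filter; activity normalised to 100% control. Phosphate transferred from radiolabelled ATP.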

266 human kinases [2] = molecular target: 266 human kinases (Homo sapiens, UniProt P28482); assay type: biochemical; settings: MAPK2(h); 100 μM
Method in brief: as §1

266 human kinases [3] = molecular target: 266 human kinases (Homo sapiens, UniProt P16591); assay type: biochemical; settings: Fer(h); 100 μM
Method in brief: as §1

266 human kinases [4] = molecular target: 266 human kinases (Homo sapiens, UniProt Q9H2X6); assay type: biochemical; settings: HIPK2(h); 100 μM
Method in brief: as §1

266 human kinases [5] = molecular target: T2, 266 human kinases (Homo sapiens, UniProt Q96BR1); assay type: biochemical; settings: SGK3(h); 100 μM
T2 sequence (Q96BR1 1-496): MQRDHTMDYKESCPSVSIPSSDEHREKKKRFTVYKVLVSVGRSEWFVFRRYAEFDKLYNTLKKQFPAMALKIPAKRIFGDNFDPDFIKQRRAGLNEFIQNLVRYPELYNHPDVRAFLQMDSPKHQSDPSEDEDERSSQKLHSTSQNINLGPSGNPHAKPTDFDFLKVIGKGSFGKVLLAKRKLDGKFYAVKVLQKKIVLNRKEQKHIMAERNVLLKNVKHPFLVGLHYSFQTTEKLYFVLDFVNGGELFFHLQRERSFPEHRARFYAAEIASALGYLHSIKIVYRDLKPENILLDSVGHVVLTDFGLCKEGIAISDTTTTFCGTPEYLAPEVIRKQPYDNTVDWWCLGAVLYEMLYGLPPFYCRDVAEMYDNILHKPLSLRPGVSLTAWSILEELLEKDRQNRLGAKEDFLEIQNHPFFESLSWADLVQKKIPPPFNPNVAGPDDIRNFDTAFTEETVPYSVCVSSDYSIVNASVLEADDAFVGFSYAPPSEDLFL
Method in brief: as §1

266 human kinases [6] = molecular target: 266 human kinases (Homo sapiens, UniProt P08581, D1228H); assay type: biochemical; settings: Met(D1246H)(h); 100 μM
Method in brief: as §1

266 human kinases [7] = molecular target: 266 human kinases (Homo sapiens, UniProt P42684); assay type: biochemical; settings: Arg(h); 100 μM
Method in brief: as §1

266 human kinases [8] = molecular target: 266 human kinases (Homo sapiens, UniProt Q96RG2); assay type: biochemical; settings: PASK(h); 100 μM
Method in brief: as §1

266 human kinases [9] = molecular target: 266 human kinases (Homo sapiens, UniProt O96013); assay type: biochemical; settings: PAK4(h); 100 μM
Method in brief: as §1

266 human kinases [10] = molecular target: 266 human kinases (Homo sapiens, UniProt P31751); assay type: biochemical; settings: PKBβ(h); 100 μM
Method in brief: as §1

266 human kinases [11] = molecular target: 266 human kinases (Homo sapiens, UniProt Q00535); assay type: biochemical; settings: 100 μM
Method in brief: as §1

266 human kinases [12] = molecular target: 266 human kinases (Homo sapiens, UniProt P51812); assay type: biochemical; settings: Rsk2(h); 100 μM
Method in brief: as §1

266 human kinases [13] = molecular target: 266 human kinases (Homo sapiens, UniProt O15264); assay type: biochemical; settings: SAPK4(h); 100 μM
Method in brief: as §1

266 human kinases [14] = molecular target: 266 human kinases (Homo sapiens, UniProt Q8N4C8); assay type: biochemical; settings: MINK(h); 100 μM
Method in brief: as §1

266 human kinases [15] = molecular target: 266 human kinases (Homo sapiens, UniProt P00519); assay type: biochemical; settings: Abl(h); 100 μM
Method in brief: as §1

Yes (h) = Yes (h) (Homo sapiens, UniProt P07947); settings: Yes(h); 100 μM
From the text: (§2) Specifically, in these assays, a positively charged substrate is phosphorylated with a radiolabeled phosphate group from an ATP if the kinase is not inhibited by an inhibitor peptide. The positively charged substrate then is attracted to a negatively charged filter membrane, quantified with a scintillation counter, and compared to a 100% activity control.

EphA2 (h) = EphA2 (h) (Homo sapiens, UniProt P29317); settings: EphA2(h); 100 μM
From the text: as §2

Fgr (h) = Fgr (h) (Homo sapiens, UniProt P09769); settings: Fgr(h); 100 μM
From the text: as §2

266 human kinases (Homo sapiens, UniProt Q00535), sequence (Q00535 whole entry): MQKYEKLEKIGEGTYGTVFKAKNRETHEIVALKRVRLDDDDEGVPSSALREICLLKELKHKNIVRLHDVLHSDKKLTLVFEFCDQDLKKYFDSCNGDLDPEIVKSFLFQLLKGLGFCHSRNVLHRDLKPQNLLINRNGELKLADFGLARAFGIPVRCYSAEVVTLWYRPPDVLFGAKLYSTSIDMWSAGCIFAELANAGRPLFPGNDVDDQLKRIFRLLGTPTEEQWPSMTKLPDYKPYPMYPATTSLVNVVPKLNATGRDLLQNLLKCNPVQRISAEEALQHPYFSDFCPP
266 human kinases (Homo sapiens, UniProt P31751), sequence (P31751 whole entry): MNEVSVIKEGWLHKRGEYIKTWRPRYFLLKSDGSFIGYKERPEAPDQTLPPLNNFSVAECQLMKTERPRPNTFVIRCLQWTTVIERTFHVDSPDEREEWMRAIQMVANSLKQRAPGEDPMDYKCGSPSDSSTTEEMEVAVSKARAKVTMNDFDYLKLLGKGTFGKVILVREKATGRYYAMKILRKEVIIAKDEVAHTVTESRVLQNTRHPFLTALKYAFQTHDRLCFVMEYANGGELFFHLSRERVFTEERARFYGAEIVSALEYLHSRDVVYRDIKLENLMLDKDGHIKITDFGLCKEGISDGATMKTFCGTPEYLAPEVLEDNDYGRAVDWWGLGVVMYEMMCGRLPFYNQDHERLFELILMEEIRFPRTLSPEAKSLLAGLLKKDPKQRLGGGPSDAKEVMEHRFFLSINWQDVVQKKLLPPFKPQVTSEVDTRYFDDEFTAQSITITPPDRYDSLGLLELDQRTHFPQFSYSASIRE
266 human kinases (Homo sapiens, UniProt P16591), sequence (P16591 whole entry): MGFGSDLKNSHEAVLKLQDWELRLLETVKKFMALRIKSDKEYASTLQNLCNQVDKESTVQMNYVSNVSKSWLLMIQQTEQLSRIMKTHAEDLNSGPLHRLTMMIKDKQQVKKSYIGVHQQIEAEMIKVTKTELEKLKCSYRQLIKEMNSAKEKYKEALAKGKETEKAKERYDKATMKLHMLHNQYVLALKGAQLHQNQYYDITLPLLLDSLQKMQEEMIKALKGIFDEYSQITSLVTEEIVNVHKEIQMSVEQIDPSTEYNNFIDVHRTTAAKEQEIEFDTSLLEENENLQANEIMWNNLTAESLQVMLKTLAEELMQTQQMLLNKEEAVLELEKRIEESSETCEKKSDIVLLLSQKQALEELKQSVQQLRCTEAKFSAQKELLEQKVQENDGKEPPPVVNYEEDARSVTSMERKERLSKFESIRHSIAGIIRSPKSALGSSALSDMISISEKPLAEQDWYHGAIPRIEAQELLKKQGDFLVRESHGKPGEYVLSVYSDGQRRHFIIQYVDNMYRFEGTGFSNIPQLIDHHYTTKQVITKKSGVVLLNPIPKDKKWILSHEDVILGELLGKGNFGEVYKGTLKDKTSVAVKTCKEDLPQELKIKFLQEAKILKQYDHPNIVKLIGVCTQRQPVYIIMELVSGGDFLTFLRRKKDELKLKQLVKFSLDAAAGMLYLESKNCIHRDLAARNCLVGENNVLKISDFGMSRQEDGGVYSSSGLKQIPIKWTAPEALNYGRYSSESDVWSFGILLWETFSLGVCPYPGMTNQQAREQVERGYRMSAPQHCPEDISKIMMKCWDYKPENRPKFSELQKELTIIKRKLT
266 human kinases (Homo sapiens, UniProt Q96RG2), sequence (Q96RG2 whole entry): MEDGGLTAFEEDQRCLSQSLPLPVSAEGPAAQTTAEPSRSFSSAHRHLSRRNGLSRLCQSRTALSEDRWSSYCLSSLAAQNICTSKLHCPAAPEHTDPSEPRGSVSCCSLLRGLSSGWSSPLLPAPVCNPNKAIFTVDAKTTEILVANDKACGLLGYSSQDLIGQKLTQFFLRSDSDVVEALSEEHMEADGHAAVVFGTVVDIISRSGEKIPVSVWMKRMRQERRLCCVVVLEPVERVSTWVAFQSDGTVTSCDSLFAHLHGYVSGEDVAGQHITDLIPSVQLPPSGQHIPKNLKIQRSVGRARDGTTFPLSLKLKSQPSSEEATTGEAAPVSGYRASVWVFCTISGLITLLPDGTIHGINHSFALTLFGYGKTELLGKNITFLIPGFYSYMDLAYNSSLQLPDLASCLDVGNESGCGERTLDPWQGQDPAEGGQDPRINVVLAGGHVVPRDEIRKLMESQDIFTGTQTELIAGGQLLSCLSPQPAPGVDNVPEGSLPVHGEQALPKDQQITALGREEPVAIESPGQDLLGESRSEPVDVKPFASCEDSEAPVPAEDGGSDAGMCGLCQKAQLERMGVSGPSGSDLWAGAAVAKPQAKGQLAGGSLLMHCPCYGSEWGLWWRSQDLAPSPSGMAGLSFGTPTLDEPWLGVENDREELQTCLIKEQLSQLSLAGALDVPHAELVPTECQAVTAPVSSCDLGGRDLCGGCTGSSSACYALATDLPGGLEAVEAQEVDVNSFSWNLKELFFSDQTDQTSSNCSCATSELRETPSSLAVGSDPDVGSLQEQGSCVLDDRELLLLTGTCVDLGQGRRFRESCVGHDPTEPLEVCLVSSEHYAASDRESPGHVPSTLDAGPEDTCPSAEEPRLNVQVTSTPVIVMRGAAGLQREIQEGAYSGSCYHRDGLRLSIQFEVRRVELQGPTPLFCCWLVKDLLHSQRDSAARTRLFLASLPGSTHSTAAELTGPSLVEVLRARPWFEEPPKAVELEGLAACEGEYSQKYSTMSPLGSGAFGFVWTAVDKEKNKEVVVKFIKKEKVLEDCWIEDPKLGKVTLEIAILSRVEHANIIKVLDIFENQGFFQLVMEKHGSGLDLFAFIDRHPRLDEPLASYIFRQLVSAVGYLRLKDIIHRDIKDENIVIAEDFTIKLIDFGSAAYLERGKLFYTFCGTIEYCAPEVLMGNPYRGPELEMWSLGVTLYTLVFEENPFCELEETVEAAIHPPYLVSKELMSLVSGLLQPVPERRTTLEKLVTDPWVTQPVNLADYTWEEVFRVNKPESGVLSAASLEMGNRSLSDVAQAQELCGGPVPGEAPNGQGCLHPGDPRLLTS
266 human kinases (Homo sapiens, UniProt O96013), sequence (O96013 whole entry): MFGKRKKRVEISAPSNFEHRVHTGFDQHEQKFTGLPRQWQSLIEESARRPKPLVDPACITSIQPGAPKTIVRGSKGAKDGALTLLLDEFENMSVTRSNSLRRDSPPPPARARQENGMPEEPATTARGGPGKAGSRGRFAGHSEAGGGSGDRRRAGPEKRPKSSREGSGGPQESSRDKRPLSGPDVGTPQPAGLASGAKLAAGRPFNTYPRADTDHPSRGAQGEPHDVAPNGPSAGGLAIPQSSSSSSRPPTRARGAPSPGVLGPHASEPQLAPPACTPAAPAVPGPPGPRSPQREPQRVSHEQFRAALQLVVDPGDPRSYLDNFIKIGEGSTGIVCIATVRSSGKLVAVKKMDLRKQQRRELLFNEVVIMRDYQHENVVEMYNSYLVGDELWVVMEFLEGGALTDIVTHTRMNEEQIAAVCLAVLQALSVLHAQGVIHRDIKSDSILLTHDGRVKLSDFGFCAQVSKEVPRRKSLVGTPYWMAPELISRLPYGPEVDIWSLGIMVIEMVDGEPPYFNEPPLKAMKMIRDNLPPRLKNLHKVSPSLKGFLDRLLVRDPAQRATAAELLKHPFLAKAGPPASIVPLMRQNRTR
266 human kinases (Homo sapiens, UniProt P51812), sequence (P51812 whole entry): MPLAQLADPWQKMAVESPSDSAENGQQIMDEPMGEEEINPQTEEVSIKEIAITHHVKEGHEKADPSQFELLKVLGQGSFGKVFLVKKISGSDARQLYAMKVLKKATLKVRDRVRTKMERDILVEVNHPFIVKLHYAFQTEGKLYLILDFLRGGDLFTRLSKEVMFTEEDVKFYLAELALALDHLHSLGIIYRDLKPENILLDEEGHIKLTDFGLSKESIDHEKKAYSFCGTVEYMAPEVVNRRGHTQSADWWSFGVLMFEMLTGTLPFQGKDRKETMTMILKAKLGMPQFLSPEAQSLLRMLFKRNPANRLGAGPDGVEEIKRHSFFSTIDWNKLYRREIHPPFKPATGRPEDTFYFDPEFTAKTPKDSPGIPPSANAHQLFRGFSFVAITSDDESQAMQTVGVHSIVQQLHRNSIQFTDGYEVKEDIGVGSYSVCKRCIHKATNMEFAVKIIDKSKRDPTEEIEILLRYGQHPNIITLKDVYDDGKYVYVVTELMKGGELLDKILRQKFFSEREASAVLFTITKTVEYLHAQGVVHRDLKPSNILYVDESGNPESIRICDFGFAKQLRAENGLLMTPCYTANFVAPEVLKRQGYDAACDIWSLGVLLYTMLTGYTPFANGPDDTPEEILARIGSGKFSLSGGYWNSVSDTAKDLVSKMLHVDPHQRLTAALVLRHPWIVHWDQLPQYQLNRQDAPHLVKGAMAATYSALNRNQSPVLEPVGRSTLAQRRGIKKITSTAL
266 human kinases (Homo sapiens, UniProt O15264), sequence (O15264 whole entry): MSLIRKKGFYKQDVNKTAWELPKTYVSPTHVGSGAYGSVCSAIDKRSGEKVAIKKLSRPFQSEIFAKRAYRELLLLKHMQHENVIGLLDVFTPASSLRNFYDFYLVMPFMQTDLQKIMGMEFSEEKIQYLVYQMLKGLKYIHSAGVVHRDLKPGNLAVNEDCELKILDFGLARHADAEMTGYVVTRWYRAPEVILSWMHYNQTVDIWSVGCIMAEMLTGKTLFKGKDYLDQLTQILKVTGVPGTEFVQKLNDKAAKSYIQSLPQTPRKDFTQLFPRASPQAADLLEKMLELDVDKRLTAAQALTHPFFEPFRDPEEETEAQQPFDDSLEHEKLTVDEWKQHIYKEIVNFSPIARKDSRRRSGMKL
266 human kinases (Homo sapiens, UniProt P28482), sequence (P28482 whole entry): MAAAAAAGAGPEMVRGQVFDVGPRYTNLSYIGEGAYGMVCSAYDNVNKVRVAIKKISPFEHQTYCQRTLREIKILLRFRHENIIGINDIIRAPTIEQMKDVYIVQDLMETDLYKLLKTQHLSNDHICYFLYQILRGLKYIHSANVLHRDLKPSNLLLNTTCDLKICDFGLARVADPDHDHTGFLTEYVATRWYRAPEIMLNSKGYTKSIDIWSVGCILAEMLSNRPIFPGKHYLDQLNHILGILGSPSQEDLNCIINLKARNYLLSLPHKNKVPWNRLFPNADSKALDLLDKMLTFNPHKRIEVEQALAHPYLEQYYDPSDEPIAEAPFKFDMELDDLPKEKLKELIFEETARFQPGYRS

| Sequence | % activity (266 human kinases [1]) [%] | % activity (266 human kinases [2]) [%] | % activity (266 human kinases [3]) [%] | % activity (266 human kinases [4]) [%] | % activity (266 human kinases [5]) [%] | % activity (266 human kinases [6]) [%] | % activity (266 human kinases [7]) [%] | % activity (266 human kinases [8]) [%] | % activity (266 human kinases [9]) [%] | % activity (266 human kinases [10]) [%] | % activity (266 human kinases [11]; CDK5/p25(h)) [%] | % activity (266 human kinases [11]; CDK5/p35(h)) [%] | % activity (266 human kinases [12]) [%] | % activity (266 human kinases [13]) [%] | % activity (266 human kinases [14]) [%] | % activity (266 human kinases [15]) [%] | % activity (Yes (h)) [%] | % activity (EphA2 (h)) [%] | % activity (Fgr (h)) [%] |
| --- | --- | --- | --- | --- | --- | --- | --- | --- | --- | --- | --- | --- | --- | --- | --- | --- | --- | --- | --- |
| HRRIKAWLKKIKALARQLGVAA (mammal) [MMI-0500] | 337 | 60 | 196 | 38 | −3 | 150 | 22 | 9 | 86 | 21 | 66 | 59 | 14 | 48 | 5 | 16 | – | – | – |
| YARAAARQARAKALNRQLGVA (mammal) [MMI-0200] | 133 | – | 101 | – | 58 | 139 | 82 | 60 | 98 | 250 | 97 | 92 | 101 | – | – | – | 93 | 95 | 71 |

Source: US20140072613A1, “Compositions and Methods for Treating Cutaneous Scarring” (priority 2012, published 2014)
